Test results from publication PMC10450178.

Tests used:
Assay in all cases: BLI
[1] = system: Gmab anti-G4 antibody fragment (human (Garvan-2 scFv library)); settings: Buffer R: 20 mM HEPES pH 7.4-7.5, 20 mM NaOAc, 140 mM KOAc, 3 mM Mg(OAc)2, 0.1% Tween20, SPR at 20 C, BLI temperature not …
[2] = molecular target: hen egg-white lysozyme (HEL) (Gallus gallus) (UniProt P00698); settings: Buffer R: 20 mM HEPES pH 7.5, 20 mM NaOAc, 140 mM KOAc, 3 mM Mg(OAc)2, 0.1% Tween20, BLI temperature not stated, low values mean tight binding
Sequence of hen egg-white lysozyme (HEL) (Gallus gallus) (P00698 19-147): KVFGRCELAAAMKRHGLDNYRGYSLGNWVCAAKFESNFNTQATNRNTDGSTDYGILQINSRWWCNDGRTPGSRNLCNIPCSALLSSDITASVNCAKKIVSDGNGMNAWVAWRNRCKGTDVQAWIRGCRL

BG4 anti-G4 antibody = settings: Buffer R: 20 mM HEPES pH 7.4-7.5, 20 mM NaOAc, 140 mM KOAc, 3 mM Mg(OAc)2, 0.1% Tween20, SPR at 20 C, BLI temperature not …

Question: What does the source list for “GTTCGTTTAAATGTGTGTCGTCGTTCGCTATCC [LYS-S8-19-core13 (HNA)]”?
Answer: Kd ([1]; ka 8.47e4, kd 1.00e-2, all-HNA): 118 nM; Kd ([2]; all-HNA): 68.8 nM

Question: For “GTGCTGTTCGTTTAAATGTGTGTCGTCGTTCGCTATCC [LYS-S8-19-core14 (HNA)]”, which Kd ([1]; all-HNA (1',5'-anhydrohexitol)) is on record?
Answer: The Kd was 32.3 nM.

Question: And the Kd ([2]; all-HNA (1',5'-anhydrohexitol))?
Answer: The Kd was 48.8 nM.

Question: What about the Kd (BG4 anti-G4 antibody; all-HNA (1',5'-anhydrohexitol)) of the same sequence?
Answer: The Kd was 5.3 nM.

Question: “GTTCGTTTAAATATGTGTCGTCGTTCGCTATCC [core13 G13A]” was tested. Which Kd ([2]; all-HNA) did it give?
Answer: The Kd was 97.9 nM.

Question: How did the Kd ([2]; all-HNA) turn out when “GTTCGTTTAAATGTGTGTCGTCGTTCACTATCC [core13 G27A]” was run?
Answer: The Kd was 9.28 nM.

Question: What does the source list for CGGGCGGGCGCGAGGGAGGGG [KIT2 G4]?
Answer: Kd ([1]; ka 7.5e4 M-1s-1, kd 2.7e-4 s-1): 3.6 nM; Kd (BG4 anti-G4 antibody; ka 7.9e4 M-1s-1, kd 1.5e-4 s-1): 1.9 nM

Question: Which Kd ([2]; all-HNA) does the source give for “GTTCGTTTAAATGTGTGTCGTCGTTCCCTATCC [core13 G27C]” here?
Answer: The Kd was 116 nM.
